The target in assay [1] is T1, SARS-CoV-2-S1 (RBD)-His protein (Trenzyme) (SARS-CoV-2, UniProt P0DTC2 319-541). As to the kind of experiment: direct ELISA on coated RBD-His.
Assay [2] deals with T2, MERS-CoV Spike protein fragment (RBD, aa 367-606, His tag) (MERS-CoV, UniProt K9N5Q8 367-606).
T2 sequence: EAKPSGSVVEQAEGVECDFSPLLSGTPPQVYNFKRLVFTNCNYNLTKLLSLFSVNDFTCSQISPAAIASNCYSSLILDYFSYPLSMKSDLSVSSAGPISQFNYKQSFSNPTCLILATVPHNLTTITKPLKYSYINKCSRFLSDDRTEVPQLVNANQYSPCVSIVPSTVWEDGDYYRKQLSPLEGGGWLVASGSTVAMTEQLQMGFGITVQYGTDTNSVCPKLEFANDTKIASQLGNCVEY
As to the kind of experiment: iQue flow cytometry, antigen-coated beads.

The target in assay [3] is T1, SARS-CoV-2-S1 (RBD)-His protein …. As to the kind of experiment: iQue flow cytometry, antigen-coated beads.
The target in assay [4] is recombinant SARS-CoV Spike protein (RBD, His tag) (SARS-CoV, UniProt P59594 306-527). The experiment in a line: iQue flow cytometry, antigen-coated beads.
Assay [5] addresses T1, SARS-CoV-2-S1 (RBD)-His protein …. The experiment in a line: competition ELISA, RBD binding to coated ACE2.
For assay [6] the target is unchanged. As to the kind of experiment: competition ELISA, RBD binding to coated ACE2; IgG1.
Assay [7] has the same target.
Assay [8] addresses SARS-CoV-2 Spike (S) protein on vesicular stomatitis virus (VSV) pseudoviruses (SARS-CoV-2, UniProt P0DTC2 14-1273). As to the kind of experiment: cell-based or functional assay.
Assay [9] concerns the target T1, SARS-CoV-2-S1 (RBD)-His protein …. The experiment in a line: direct ELISA on coated RBD-His. The source holds these as a separate data set.
The target is the same in assay [10]. The experiment in a line: direct ELISA on coated RBD-His (FIG. 1C); IgG1.
The target of assay [11] is SARS-CoV-2 Spike Protein (S1+S2 ECD, His-Tag) (Sino 40589-V08B1) (SARS-CoV-2, UniProt P0DTC2 14-1213).
In assay [12] the target is T1, SARS-CoV-2-S1 (RBD)-His protein …. The source holds these as a separate data set.
Assay [13] has the same target. This is another data set of the same source.
Assay [14] has the same target. The experiment in a line: competition ELISA, RBD binding to coated ACE2. The source holds these as a separate data set.
Another assay addresses T3, BSA (Sigma-Aldrich) (bovine, UniProt P02769 25-607).
T3 construct: also called bovine serum albumin; BSA control
As to the kind of experiment: direct ELISA on coated BSA.

Values joined by “and” are separate entries in the source; they are usually repeats but may differ in a detail not shown here. Equal values may be shown once. Read-outs that look alike come from different tables or passages of the source.

T3 sequence (P02769 25-607 limits assumed): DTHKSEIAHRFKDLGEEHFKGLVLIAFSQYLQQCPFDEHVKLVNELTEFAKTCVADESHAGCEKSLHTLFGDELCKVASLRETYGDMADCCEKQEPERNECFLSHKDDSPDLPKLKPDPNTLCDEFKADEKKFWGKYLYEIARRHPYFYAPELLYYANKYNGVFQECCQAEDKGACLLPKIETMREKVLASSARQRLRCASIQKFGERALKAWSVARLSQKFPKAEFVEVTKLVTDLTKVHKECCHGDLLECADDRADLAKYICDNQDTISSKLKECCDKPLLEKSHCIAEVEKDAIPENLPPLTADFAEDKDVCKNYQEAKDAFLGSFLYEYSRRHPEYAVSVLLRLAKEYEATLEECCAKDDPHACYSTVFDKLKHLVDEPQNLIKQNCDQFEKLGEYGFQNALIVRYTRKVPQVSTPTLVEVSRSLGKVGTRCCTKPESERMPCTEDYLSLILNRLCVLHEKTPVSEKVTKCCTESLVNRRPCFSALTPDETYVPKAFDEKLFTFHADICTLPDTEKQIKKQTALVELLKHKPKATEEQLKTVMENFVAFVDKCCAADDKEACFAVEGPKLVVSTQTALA

B1: NI-607.531_C8 (antibody, V domains shown)
VH: EVQLVESGGGVVQPGRSLRLSCTASGFTFSFYSVHWVRQAPGKGLEWVAVISYDGSTKYYADSVKGRFTISRDNSKNTLYLQMDSLRTEDTAVYYCASPPISPIPAAGTPLAYWGQGTLVTVSS
VL: not shown
As for B1, the EC50 was 0.011 nM in [1]; 1000 nM in assay [2]; 1.2 nM in assay [3]; 1000 nM in assay [4]; about 0.017 nM in assay [9]. For the same molecule, the IC50 is 0.153 nM in [5] and about 0.132 µg/mL in assay [6]. The “IC50 (read off the curve)” value in assay [7] was about 0.03 µg/mL. In addition, the “IC50, pseudovirus entry assay (luciferase, HEK 293T-ACE2 cells)” value (“IC50, pseudovirus entry assay” below) in [8] is 86.4 ng/mL and 0.572 nM.

B2: NI-607.649_B11 (antibody, V domains shown)
VH: QVQLVQSGAEVKKPGSSVKVSCKASGGTFSNYAISWVRQAPGQGLEWMGGIIPIFGTANYAQKFQGRVTITADESTSTAYMELSSLRSEDTAVYYCAGDRWYYDSSGYPTPDEYFQHWGQGTQVTVSS
VL: QSVLTQPPSVSGAPGQRVTISCTGSSSNIGAGYDVHWYQQLPGTAPKLLIYGNSNRPSGVPDRFSGSKSGTSASLAITGLQAEDEADYYCQSYDSSLSGVVFGGGTKLTVL
With B2, the EC50 in assay [10] is about 0.013 nM; in assay [1], 0.027 nM; in [2] it was 1000 nM; in assay [3] it was 1.4 nM; in assay [4], 1.7 nM; in assay [13], 0.036 nM. Also, the EC50 in assay [9] is about 0.021 nM. For the same molecule, the IC50 in assay [5] was 0.08 nM; in [6], about 0.052 µg/mL. Further, the “EC50 (read off the curve)” value in assay [11] is about 0.5 nM; in [12] it was about 4 nM. In addition, in assay [7], the “IC50 (read off the curve)” value is about 0.04 µg/mL. In addition, the “IC50, pseudovirus entry assay” value in assay [8] is 232 ng/mL and 1.53 nM.

B3: NI-607.532_D3 (antibody, V domains shown)
VH: EVQLVQSGAEVKRPGASVKVSCKASGYHFTDYYIHWVRQAPGQGLEWMGWINPNSGGTNYAQKFQGRVTMTRDTSISTAYMELSRLRSDDTAVYYCARVYYYDSSSSADYWGQGTLVTVSS
VL: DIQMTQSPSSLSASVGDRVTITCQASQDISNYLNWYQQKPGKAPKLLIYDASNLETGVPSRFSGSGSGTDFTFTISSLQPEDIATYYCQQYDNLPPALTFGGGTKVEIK
B3: the EC50 in assay [1] is 0.0049 nM; in assay [2], 1000 nM; in assay [3] it was 1 nM; in assay [4], 1000 nM. Moreover, the IC50 was 0.917 nM in [5]; ~0.457 µg/mL and ~3 nM in assay [14]. For the same molecule, the “IC50, pseudovirus entry assay” value in assay [8] stood at 2.1 µg/mL. Also, the binding result with BSA (Sigma-Aldrich) is “no binding (tested: 400 nM)”.

For the origin of these results see patent US20230242624A1 (NEURIMMUNE, published 2023).
